Measurements reported in patent US20020049303A1 (OKLAHOMA MEDICAL RESEARCH FOUNDATION, published 2002).
Where no end group is shown, it is not given here.

How the values were obtained:
[1] = biological target: T1, recombinant memapsin 2 (M2pd), auto-activated from pro-M2pd at pH 4.0 (human, UniProt P56817 25-419, limits assumed); test: Ki quoted for the inhibitor used in the crystal trials; assay not described at this place
T1 construct: also called beta-secretase

[2] = biological target: T1, recombinant memapsin 2 (M2pd), …; test: enzyme inhibition with a synthetic fluorogenic peptide substrate
Procedure: Enzyme activity was measured as described above, but with the addition of either OM99-1 or OM99-2.

[3] = biological target: T1, recombinant memapsin 2 (M2pd), …; test: comparison of Ki of the inhibitor without P4 Glu with that of OM99-2

T1 sequence (P56817 25-419 limits assumed): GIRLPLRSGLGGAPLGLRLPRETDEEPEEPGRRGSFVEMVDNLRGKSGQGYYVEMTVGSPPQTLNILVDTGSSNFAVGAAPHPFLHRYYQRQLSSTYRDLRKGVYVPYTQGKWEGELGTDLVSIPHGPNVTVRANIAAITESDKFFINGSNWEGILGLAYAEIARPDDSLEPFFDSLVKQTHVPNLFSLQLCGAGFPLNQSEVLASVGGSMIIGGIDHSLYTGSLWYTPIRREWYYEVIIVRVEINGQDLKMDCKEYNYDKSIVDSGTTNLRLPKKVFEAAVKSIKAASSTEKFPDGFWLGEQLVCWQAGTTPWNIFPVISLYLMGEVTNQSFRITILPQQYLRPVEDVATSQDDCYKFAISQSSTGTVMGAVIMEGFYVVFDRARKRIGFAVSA

| Ki [1] | Ki [2] | fold increase in Ki against OM99-2 [3] | Binder |
| --- | --- | --- | --- |
| 10 nM |  |  | EVNLAAEF (also: Leu-Ala peptide bond replaced by hydroxyethylene isostere -CH(OH)-CH2-) [OM99-2: Glu-Val-Asn-Leu*Ala-Ala-Glu-Phe] |
|  | 30 nM | 10 fold | VNLAAEF (also: Leu-Ala peptide bond replaced by hydroxyethylene isostere -CH(OH)-CH2-, also called OMR99-1) [OM99-1: Val-Asn-Leu*Ala-Ala-Glu-Phe] |
